Experimental findings from the supplement of paper PMC11811203 are described below.

B1: THAP1; numbered along this chain (parent)
chain: MVQSCSAYGCKNRYDKDKPVSFHKFPLTRPSLCKEWEAAVRRKNFKPTKYSSICSEHFTPDCFKRECNNKLLKENAVPTIFLCTEPHDKKEDLLEPQEQLPPPPLPPPVSQVDAAIGLLMPPLQTPVNLSVFCDHNYTVEDTMHQRKRIHQLEQQVEKLRKKLKTAQQRCRRQERQLEKLKEVVHFQKEKDDVSERGYVILPNDYFEIVEVPA

Variants of B1 are the subject of the data set. Description: THAP1 transcriptional activity (GFP+/GFP- enrichment relative to wild-type constructs) (ratio to WT); higher = more THAP1 activity (PSMB5 reporter activation). The settings on record: with PSMB5 promoter-GFP reporter. The procedure, abridged: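 A site-saturation library of human THAP1 (residues 2–213, each changed to all 20 amino acids) was transduced by lentivirus at MOI ~0.3, in duplicate, into THAP1-knockout HEK-293T cells carrying mClover3 knocked in at endogenous PSMB5. After five days, BFP+ cells were sorted into GFP-dim and GFP-bright bins, and variants were counted by Illumina sequencing of genomic DNA amplicons. Activity is the replicate-mean bright/dim read fold change divided by the mean of wild-type synonymous constructs.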
As to MVQSCSAYGCKNRYDKDKPVSFHKFPLTRPSLCKEWEAAVRRKNFKPTKYSSICSEHFTPDCFKRECNNKALKENAVPTIFLCTEPHDKKEDLLEPQEQLPPPPLPPPVSQVDAAIGLLMPPLQTPVNLSVFCDHNYTVEDTMHQRKRIHQLEQQVEKLRKKLKTAQQRCRRQERQLEKLKEVVHFQKEKDDVSERGYVILPNDYFEIVEVPA [L71A], the THAP1 transcriptional activity worked out at 0.407.

For the variant MVQSCSAYGCKNRYDKDKPVSFHKFPLTRPSLCKEWEAAVRRKNFKPTKYSSICSEHFTPDCFKRECNNKLLKENAVPTIFLCTEPHDKKEDLLEPQEQLPPPPLPPPVSQVDAAIGLLMPPLQTPVNLSVFCDHNYTVEDTMHQRKRIHQLEQQYEKLRKKLKTAQQRCRRQERQLEKLKEVVHFQKEKDDVSERGYVILPNDYFEIVEVPA [V156Y], the THAP1 transcriptional activity was determined as 0.362.

Regarding MVQSCSAYGCKNRYDKDKPVSFHKFPLTRPSLCKEWEAAVRRKNFKPTKYSSICSEHFTPDCFKRECNNKLLKENAVPTIFLCTEPHDKKEDLLEPQEQLPPPPLPPPVSQVDAAIGLLMPPLQTPVNLSVFCDHNYTVEDTMHQRKRIHQLEQQVEKLRKKDKTAQQRCRRQERQLEKLKEVVHFQKEKDDVSERGYVILPNDYFEIVEVPA [L163D], the THAP1 transcriptional activity stood at 0.0892.

Take MVQSCSAYGCKNRYDKDKPVSFHKFPLTRLSLCKEWEAAVRRKNFKPTKYSSICSEHFTPDCFKRECNNKLLKENAVPTIFLCTEPHDKKEDLLEPQEQLPPPPLPPPVSQVDAAIGLLMPPLQTPVNLSVFCDHNYTVEDTMHQRKRIHQLEQQVEKLRKKLKTAQQRCRRQERQLEKLKEVVHFQKEKDDVSERGYVILPNDYFEIVEVPA [P30L]: the THAP1 transcriptional activity is 0.261.

In the case of MVQSCSAYGCKNRYDKDKPVSFHKFPLTRPSLCKEWEAAVRRKNFKPTKYSSICSEHFTPDCFKRECNNKLLKENAVPTIFLCTEPHDKKEDLLEPQEQLPPPPLPPPVSQVDAAIGLLMPPLQTPVNLSVFCDHNYTVEDTMHQRKRIHQLEQQVEKLRKKLKTAQQRCRRQERQLEKLKEVVHFQKEKDDVSERGYVILPRDYFEIVEVPA [N203R], the THAP1 transcriptional activity amounted to 0.497.

With MVQSCSAYGCKNRYDKDKPVSFHKFPLTRPSLCKEWEAAVRRKNFKPTKYSSICSEHFTPDCFKRECNNKLLKENAVPTIFLCTEPHDKKEDLLEPQEQLPPPPLPPPVSQVDAAIGLAMPPLQTPVNLSVFCDHNYTVEDTMHQRKRIHQLEQQVEKLRKKLKTAQQRCRRQERQLEKLKEVVHFQKEKDDVSERGYVILPNDYFEIVEVPA [L119A], the THAP1 transcriptional activity stood at 0.912.

As to MVQSCSAYGCKNRYDKDKPVSFHKFPLTRPGLCKEWEAAVRRKNFKPTKYSSICSEHFTPDCFKRECNNKLLKENAVPTIFLCTEPHDKKEDLLEPQEQLPPPPLPPPVSQVDAAIGLLMPPLQTPVNLSVFCDHNYTVEDTMHQRKRIHQLEQQVEKLRKKLKTAQQRCRRQERQLEKLKEVVHFQKEKDDVSERGYVILPNDYFEIVEVPA [S31G], the THAP1 transcriptional activity turned out to be 1.17.

Take MVQSCSAYGCKNRYDKDKPVSFHKFPLTRPSLCKEWEAAVRRKNFKPTKYSSICSEHFTPDCFKRECNNKLLKENAVPTIFLCTEPHDKKEDLLEPQEQLPPPPLPPPVSQVDAAIGLLMPPLQTPVNLSVFCDHNYTVEDTMHQRKRIHQLEQQVEKLRKKLKTAQQRCRRQERQLEKLKEVVCFQKEKDDVSERGYVILPNDYFEIVEVPA [H185C]: the THAP1 transcriptional activity was determined as 0.951.

For the variant MVQSCSAYGCKNRYDKDKPVSFHKFPLTRPSLCKEWEAAVRRKNFKPTKYSSICSEHFTPDCFKRECNNKLLKENAVPTIFLCTEPHDKKEDLLEPQEQLPPPPLPPPVSQVDAAIGLLMPPLQTPVNLSVFCDHNYTVEDTMHQRKRIHQLEQQVEKLRKKLKTAQQRCRRQKRQLEKLKEVVHFQKEKDDVSERGYVILPNDYFEIVEVPA [E174K], the THAP1 transcriptional activity was 0.794.

MVQSCSAYGCKNRYDKPKPVSFHKFPLTRPSLCKEWEAAVRRKNFKPTKYSSICSEHFTPDCFKRECNNKLLKENAVPTIFLCTEPHDKKEDLLEPQEQLPPPPLPPPVSQVDAAIGLLMPPLQTPVNLSVFCDHNYTVEDTMHQRKRIHQLEQQVEKLRKKLKTAQQRCRRQERQLEKLKEVVHFQKEKDDVSERGYVILPNDYFEIVEVPA [D17P]: the THAP1 transcriptional activity came to 0.129.

Regarding MVQSCSAYGCKNRYDKDKPVSFHKFPLTRPSLCKEWEAAVRRKNFKPTKYSSICSEHFTPDCFKRECNNKLLKENAVPTIFLCTEPHDKKEDLLEPQEQLPPPPLPPPVSQVDAAIQLLMPPLQTPVNLSVFCDHNYTVEDTMHQRKRIHQLEQQVEKLRKKLKTAQQRCRRQERQLEKLKEVVHFQKEKDDVSERGYVILPNDYFEIVEVPA [G117Q], the THAP1 transcriptional activity was 0.581.

Regarding MVQSCSAYGCKNRYDKDKPVSFHKFPLLRPSLCKEWEAAVRRKNFKPTKYSSICSEHFTPDCFKRECNNKLLKENAVPTIFLCTEPHDKKEDLLEPQEQLPPPPLPPPVSQVDAAIGLLMPPLQTPVNLSVFCDHNYTVEDTMHQRKRIHQLEQQVEKLRKKLKTAQQRCRRQERQLEKLKEVVHFQKEKDDVSERGYVILPNDYFEIVEVPA [T28L], the THAP1 transcriptional activity was determined as 0.612.

In the case of MVQSCSAYGCKNRYDKDKPVSFHKFPLTRPSLCKEWEAAVRRKNFKPTKYSSICSEHFTPDCFKRECNNKLLKENAVPTIFLCTEPHDKKEDLLEPQEQLPPPPLPPPVFQVDAAIGLLMPPLQTPVNLSVFCDHNYTVEDTMHQRKRIHQLEQQVEKLRKKLKTAQQRCRRQERQLEKLKEVVHFQKEKDDVSERGYVILPNDYFEIVEVPA [S110F], the THAP1 transcriptional activity was found to be 0.715.

For MVQSCSAYGCKNRYDKDKPVSTHKFPLTRPSLCKEWEAAVRRKNFKPTKYSSICSEHFTPDCFKRECNNKLLKENAVPTIFLCTEPHDKKEDLLEPQEQLPPPPLPPPVSQVDAAIGLLMPPLQTPVNLSVFCDHNYTVEDTMHQRKRIHQLEQQVEKLRKKLKTAQQRCRRQERQLEKLKEVVHFQKEKDDVSERGYVILPNDYFEIVEVPA [F22T], the THAP1 transcriptional activity is 0.126.
